Key:
[1] = target: T1, ACE2-Ig (extracellular domain of human ACE2 linked to the Fc domain of human IgG1) (human, UniProt Q9BYF1 18-740); assay: SPR
[2] = target: T1, ACE2-Ig (extracellular domain of human …); assay: SPR; remark: listed apart in the source

T1 sequence (Q9BYF1 18-740): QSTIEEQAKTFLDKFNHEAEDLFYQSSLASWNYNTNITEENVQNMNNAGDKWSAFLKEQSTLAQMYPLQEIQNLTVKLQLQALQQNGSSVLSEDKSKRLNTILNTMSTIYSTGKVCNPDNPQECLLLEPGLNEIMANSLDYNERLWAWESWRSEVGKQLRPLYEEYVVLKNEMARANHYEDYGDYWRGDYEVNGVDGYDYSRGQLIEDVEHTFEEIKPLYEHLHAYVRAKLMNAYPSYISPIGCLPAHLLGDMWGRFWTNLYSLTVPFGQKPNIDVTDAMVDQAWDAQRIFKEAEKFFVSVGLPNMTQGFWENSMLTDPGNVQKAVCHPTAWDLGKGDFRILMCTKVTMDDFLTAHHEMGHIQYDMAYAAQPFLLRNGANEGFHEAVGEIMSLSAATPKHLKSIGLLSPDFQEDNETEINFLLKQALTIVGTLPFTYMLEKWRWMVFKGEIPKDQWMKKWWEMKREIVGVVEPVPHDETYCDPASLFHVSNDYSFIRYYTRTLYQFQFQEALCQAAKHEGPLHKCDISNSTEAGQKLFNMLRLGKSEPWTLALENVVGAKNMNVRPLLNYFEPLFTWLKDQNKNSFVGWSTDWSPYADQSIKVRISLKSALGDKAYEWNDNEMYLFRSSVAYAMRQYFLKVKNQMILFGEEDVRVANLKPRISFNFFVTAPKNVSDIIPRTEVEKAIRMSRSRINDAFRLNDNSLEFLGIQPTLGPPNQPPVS

B1: SARS-CoV S protein (natural protein)
chain: not shown
B1 showed a koff [1] of 0.00294 s⁻¹ and a Kd [2] of 177 nM.
